Laboratory results from patent publication US6116237A, “Methods of dry powder inhalation” (priority 1997, dated 2000).

Assay: Systemic delivery of calcitonin as model peptide following dosing with the Spiros system, compared to subcutaneous injection
Format: in vivo
Details: calcitonin/lactose blend, estimated
Text: 5. Using calcitonin as a model peptide for systemic delivery, the bioactivity following dosing with the Spiros system has been estimated to be greater than 20% compared to a subcutaneous injection.

## calcitonin
  bioactivity following dosing with the Spiros system compared to a subcutaneous injection (systemic availability): greater than 20%
